Experimental data taken from PMC7748142, “ATM inhibition enhances Auranofin-induced oxidative stress and cell death in lung cell lines” (PLoS ONE, 2020).

B1: peroxiredoxin 3 (PRDX3), A549 cells (enzyme, human (endogenous in A549), UniProt P30048 62-256, looked up)
chain: APAVTQHAPYFKGTAVVNGEFKDLSLDDFKGKYLVLFFYPLDFTFVCPTEIVAFSDKANEFHDVNCEVVAVSVDSHFSHLAWINTPRKNGGLGHMNIALLSDLTKQISRDYGVLLEGSGLALRGLFIIDPNGVIKHLSVNDLPVGRSVEETLRLVKAFQYVETHGEVCPANWTPDSPTIKPSPAASKEYFQKVNQ
notes: peroxiredoxin 3, endogenous in A549 cells, detected by anti-PRDX3 blot; source: endogenous, A549 lysate
B2: peroxiredoxin 3 (PRDX3), murine lung fibroblasts (enzyme, mouse (endogenous in MLFs), UniProt P20108 63-257, looked up)
chain: TPAVTQHAPYFKGTAVVNGEFKELSLDDFKGKYLVLFFYPLDFTFVCPTEIVAFSDKANEFHDVNCEVVAVSVDSHFSHLAWINTPRKNGGLGHMNITLLSDITKQISRDYGVLLESAGIALRGLFIIDPNGVVKHLSVNDLPVGRSVEETLRLVKAFQFVETHGEVCPANWTPESPTIKPSPTASKEYFEKVHQ
notes: peroxiredoxin 3, endogenous in murine lung fibroblasts, detected by anti-PRDX3 blot; source: endogenous, murine lung fibroblast (MLF) lysate
B3: peroxiredoxin 1 (PRDX1) (enzyme, human (endogenous in HEK 293T and A549), UniProt Q06830 1-199, looked up)
chain: MSSGNAKIGHPAPNFKATAVMPDGQFKDISLSDYKGKYVVFFFYPLDFTFVCPTEIIAFSDRAEEFKKLNCQVIGASVDSHFCHLAWVNTPKKQGGLGPMNIPLVSDPKRTIAQDYGVLKADEGISFRGLFIIDDKGILRQITVNDLPVGRSVDETLRLVQAFQFTDKHGEVCPAGWKPGSDTIKPDVQKSKEYFSKQK
notes: peroxiredoxin 1, endogenous in human cell lines, detected by anti-PRDX1 blot; source: endogenous, HEK 293T lysate (trapping); endogenous, A549 lysate (dimer analysis)

Molecular target: the molecule itself
Assay: non-reducing SDS-PAGE with Western blot; A549 or MLF cells treated with Auranofin (A549: 10 uM, MLF: 2 uM) alone or with KU55933 (10 uM, 1 h pre-treatment); lysed in CHAPS buffer with 100 mM NEM; boiled in non-reducing sample buffer; disulfide-linked dimers

Stoichiometry N, 2:
B1
B2
B3
